“Also recorded” adds a separate entry of the source.
Legend:
[1] = system: CD4+CD25− Teff cell proliferation; experiment: Suppression assay: suppression of Teff cell proliferation by transduced CD4+ cells expressing Foxp3 forms; assay type: cell-based, mouse; conditions: retrovirally transduced CD4+ cells expressing the Foxp3 form, co-cultured with CFSE-labeled CD4+CD25− T cells, 72 hr
Experimental: Suppression assays—CD4+CD25+ (T-reg) and CD4+CD25− (T-eff) T cell and APC are isolated with magnetic beads following the manufacturer's instructions (Miltenyi). In some cases, 5×10^4 CD4+CD25− T cells were labeled with CFSE and stimulated with CD3 mAb (1 μg/ml) in the presence of irradiated syngeneic APC and varying ratios of activated CD4+ cells that had been transduced with different Foxp3 constructs. […] After 72 hours culture, cells were harvested and CD4+CD25− T cell proliferation was quantified by flow cytometry (Cyan) based on carboxylfluorescein diacetate succininyl ester (CFSE) profile of dividing effector T cells at 72 hr. Absolute numbers of effector T cells were determined by adding equal numbers of Dynabeads to each sample, and during FACS analysis gates were drawn on Dynabeads and collection time was based on set number of bead events for each sample. […]
WT Foxp3 and engineered Foxp3 mutants (N-terminal cleaved, C-terminal cleaved and N -plus C-terminal-cleaved (double-cleaved)) were retrovirally expressed in CD4+ cells and the ability of the transduced cells to suppress Teff cell proliferation was measured.

RAG−/− (C57BL/6) mice = experiment: Adoptive transfer model of IBD; assay type: in vivo, mouse; conditions: for weight loss: 1×10^5 transduced Thy1.1+CD4+ cells plus 1×10^6 CD4+CD25− Teff cells i.p., weights monitored for 45 days; for histology of duodenal sections: duodenal samples collected at day 45, H&E
Text: Adoptive transfer model of IBD—CD4+CD25− T cells were isolated from mesenteric lymph nodes using magnetic beads (Miltenyi) to >95% purity (by flow cytometry). CD4+CD25− T cells (1×10^6 cells) were co-injected i.p. into RAG1−/− (C57BL/6) mice along with Thy1.1+CD4+CD25− cells transduced with WT or mutated Foxp3 ([…]). Mice were monitored biweekly for clinical evidence of disease, including weight loss and stool consistency. RAG1−/− mice on the C57BL/6 background were purchased from Taconic Laboratory. Mice were housed in specific pathogen-free conditions, and used for studies approved by the institutional animal care and use committee of the Children's Hospital of Philadelphia.
Pathology—Gut samples were paraffin embedded and stained by H&E, or snap-frozen and stained by immunoperoxidase using mAbs to Foxp3 and T cell subsets (73).
To test the effects of the different Foxp3 mutants in vivo, RAG−/− (C57BL/6) mice were injected with 1×10^5 transduced Thy1.1+CD4+ cells expressing either WT-Foxp3 or a mutant Foxp3 (RKKR• (SEQ ID NO: 179), QNKR• (SEQ ID NO: 180), QNKR-- (SEQ ID NO: 180)) or empty vector (control), plus 1×10^6 CD4+CD25− Teff cells. Additional mice received CD4+CD25− Teff cells alone. The weights of the animals in each group were monitored weekly for 45 days.

Row | Molecule | suppression of Teff cell proliferation [1] | weight loss (RAG−/− (C57BL/6) mice) | histology of duodenal sections (RAG−/− (C57BL/6) mice) | survival (RAG−/− (C57BL/6) mice; 1×10^5 transduced CD4+ cells plus 1×10^6 CD4+CD25− Teff cells, 45 days)
1 | C-cleaved PNNW mutant: short 417-aa Foxp3 in which the last four amino acids RKKR are replaced with PNNW (protein, UniProt Q99JB6 1-417, looked up, variant R414P K415N K416N R417W) MPNPRPAKPMAPSLALGPSPGVLPSWKTAPKGSELLGTRGSGGPFQGRDLRSGAHTSSSLNPLPPSQLQLPTVPLVMVAPSGARLGPSPHLQALLQDRPHFMHQLSTVDAHAQTPVLQVRPLDNPAMISLPPPSAATGVFSLKARPGLPPGINVASLEWVSREPALLCTFPRSGTPRKDSNLLAAPQGSYPLLANGVCKWPGCEKVFEEPEEFLKHCQADHLLDEKGKAQCLLQREVVQSLEQQLELEKEKLGAMQAHLAGKMALAKAPSVASMDKSSCCIVATSTQGSVLPAWSAPREAPDGGLFAVRRHLWGSHGNSSFPEFFHNMDYFKYHNMRPPFTYATLIRWAILEAPERQRTLNEIYHWFTRMFAYFRNHPATWKNAIRHNLSLHKCFVRVESEKGAVWTVDEFEFPNNW | loss in the suppression ability | – | – | –
2 | QNKR•: short 417-aa Foxp3 mutant without C-terminal tail, terminating with QNKR (protein, UniProt Q99JB6 1-417, looked up, variant R414Q K415N) MPNPRPAKPMAPSLALGPSPGVLPSWKTAPKGSELLGTRGSGGPFQGRDLRSGAHTSSSLNPLPPSQLQLPTVPLVMVAPSGARLGPSPHLQALLQDRPHFMHQLSTVDAHAQTPVLQVRPLDNPAMISLPPPSAATGVFSLKARPGLPPGINVASLEWVSREPALLCTFPRSGTPRKDSNLLAAPQGSYPLLANGVCKWPGCEKVFEEPEEFLKHCQADHLLDEKGKAQCLLQREVVQSLEQQLELEKEKLGAMQAHLAGKMALAKAPSVASMDKSSCCIVATSTQGSVLPAWSAPREAPDGGLFAVRRHLWGSHGNSSFPEFFHNMDYFKYHNMRPPFTYATLIRWAILEAPERQRTLNEIYHWFTRMFAYFRNHPATWKNAIRHNLSLHKCFVRVESEKGAVWTVDEFEFQNKR | – | negligible weight loss; also recorded: significantly more effective in controlling weight loss | minor mononuclear cell infiltration and edema | –
3 | WT-Foxp3: wild-type mouse Foxp3, 429-aa, retrovirally expressed in CD4+ T cells (protein) MPNPRPAKPMAPSLALGPSPGVLPSWKTAPKGSELLGTRGSGGPFQGRDLRSGAHTSSSLNPLPPSQLQLPTVPLVMVAPSGARLGPSPHLQALLQDRPHFMHQLSTVDAHAQTPVLQVRPLDNPAMISLPPPSAATGVFSLKARPGLPPGINVASLEWVSREPALLCTFPRSGTPRKDSNLLAAPQGSYPLLANGVCKWPGCEKVFEEPEEFLKHCQADHLLDEKGKAQCLLQREVVQSLEQQLELEKEKLGAMQAHLAGKMALAKAPSVASMDKSSCCIVATSTQGSVLPAWSAPREAPDGGLFAVRRHLWGSHGNSSFPEFFHNMDYFKYHNMRPPFTYATLIRWAILEAPERQRTLNEIYHWFTRMFAYFRNHPATWKNAIRHNLSLHKCFVRVESEKGAVWTVDEFEFRKKRSQRPNKCSNPCP | – | minor weight loss; also recorded: benefit | mild cell mononuclear cell infiltration and edema within villi; also recorded: mild mononuclear cell recruitment and villous edema | survived
4 | QNKR--: 429-aa Foxp3 with RKKR replaced by QNKR, intact C-terminal tail resistant to proteolytic cleavage (protein, UniProt Q99JB6 1-429, looked up, variant R414Q K415N) Forkhead box protein P3: MPNPRPAKPMAPSLALGPSPGVLPSWKTAPKGSELLGTRGSGGPFQGRDLRSGAHTSSSLNPLPPSQLQLPTVPLVMVAPSGARLGPSPHLQALLQDRPHFMHQLSTVDAHAQTPVLQVRPLDNPAMISLPPPSAATGVFSLKARPGLPPGINVASLEWVSREPALLCTFPRSGTPRKDSNLLAAPQGSYPLLANGVCKWPGCEKVFEEPEEFLKHCQADHLLDEKGKAQCLLQREVVQSLEQQLELEKEKLGAMQAHLAGKMALAKAPSVASMDKSSCCIVATSTQGSVLPAWSAPREAPDGGLFAVRRHLWGSHGNSSFPEFFHNMDYFKYHNMRPPFTYATLIRWAILEAPERQRTLNEIYHWFTRMFAYFRNHPATWKNAIRHNLSLHKCFVRVESEKGAVWTVDEFEFQNKRSQRPNKCSNPCP | – | did significantly worse | marked mononuclear cell infiltration of villous processes; also recorded: extensive mononuclear cell recruitment | –
5 | double-cleaved Foxp3: engineered Foxp3 lacking N-terminal 51-aa and C-terminal tail (366-aa) (protein) SGAHTSSSLNPLPPSQLQLPTVPLVMVAPSGARLGPSPHLQALLQDRPHFMHQLSTVDAHAQTPVLQVRPLDNPAMISLPPPSAATGVFSLKARPGLPPGINVASLEWVSREPALLCTFPRSGTPRKDSNLLAAPQGSYPLLANGVCKWPGCEKVFEEPEEFLKHCQADHLLDEKGKAQCLLQREVVQSLEQQLELEKEKLGAMQAHLAGKMALAKAPSVASMDKSSCCIVATSTQGSVLPAWSAPREAPDGGLFAVRRHLWGSHGNSSFPEFFHNMDYFKYHNMRPPFTYATLIRWAILEAPERQRTLNEIYHWFTRMFAYFRNHPATWKNAIRHNLSLHKCFVRVESEKGAVWTVDEFEFRKKR | suppressed Teff cell proliferation stronger than both WTFoxp3 and N-terminal-cleaved Foxp3 | – | – | –

Source: US20100310635A1, “Compositions and Methods for Regulating T-Cell Activity” (priority 2007, published 2010)
